Source: paper PMC4321881

Target: nascent chain-containing 60S ribosomal subunit (60S-RNC) (UniProt P35268)

Listerin, sequence (O94822 whole entry): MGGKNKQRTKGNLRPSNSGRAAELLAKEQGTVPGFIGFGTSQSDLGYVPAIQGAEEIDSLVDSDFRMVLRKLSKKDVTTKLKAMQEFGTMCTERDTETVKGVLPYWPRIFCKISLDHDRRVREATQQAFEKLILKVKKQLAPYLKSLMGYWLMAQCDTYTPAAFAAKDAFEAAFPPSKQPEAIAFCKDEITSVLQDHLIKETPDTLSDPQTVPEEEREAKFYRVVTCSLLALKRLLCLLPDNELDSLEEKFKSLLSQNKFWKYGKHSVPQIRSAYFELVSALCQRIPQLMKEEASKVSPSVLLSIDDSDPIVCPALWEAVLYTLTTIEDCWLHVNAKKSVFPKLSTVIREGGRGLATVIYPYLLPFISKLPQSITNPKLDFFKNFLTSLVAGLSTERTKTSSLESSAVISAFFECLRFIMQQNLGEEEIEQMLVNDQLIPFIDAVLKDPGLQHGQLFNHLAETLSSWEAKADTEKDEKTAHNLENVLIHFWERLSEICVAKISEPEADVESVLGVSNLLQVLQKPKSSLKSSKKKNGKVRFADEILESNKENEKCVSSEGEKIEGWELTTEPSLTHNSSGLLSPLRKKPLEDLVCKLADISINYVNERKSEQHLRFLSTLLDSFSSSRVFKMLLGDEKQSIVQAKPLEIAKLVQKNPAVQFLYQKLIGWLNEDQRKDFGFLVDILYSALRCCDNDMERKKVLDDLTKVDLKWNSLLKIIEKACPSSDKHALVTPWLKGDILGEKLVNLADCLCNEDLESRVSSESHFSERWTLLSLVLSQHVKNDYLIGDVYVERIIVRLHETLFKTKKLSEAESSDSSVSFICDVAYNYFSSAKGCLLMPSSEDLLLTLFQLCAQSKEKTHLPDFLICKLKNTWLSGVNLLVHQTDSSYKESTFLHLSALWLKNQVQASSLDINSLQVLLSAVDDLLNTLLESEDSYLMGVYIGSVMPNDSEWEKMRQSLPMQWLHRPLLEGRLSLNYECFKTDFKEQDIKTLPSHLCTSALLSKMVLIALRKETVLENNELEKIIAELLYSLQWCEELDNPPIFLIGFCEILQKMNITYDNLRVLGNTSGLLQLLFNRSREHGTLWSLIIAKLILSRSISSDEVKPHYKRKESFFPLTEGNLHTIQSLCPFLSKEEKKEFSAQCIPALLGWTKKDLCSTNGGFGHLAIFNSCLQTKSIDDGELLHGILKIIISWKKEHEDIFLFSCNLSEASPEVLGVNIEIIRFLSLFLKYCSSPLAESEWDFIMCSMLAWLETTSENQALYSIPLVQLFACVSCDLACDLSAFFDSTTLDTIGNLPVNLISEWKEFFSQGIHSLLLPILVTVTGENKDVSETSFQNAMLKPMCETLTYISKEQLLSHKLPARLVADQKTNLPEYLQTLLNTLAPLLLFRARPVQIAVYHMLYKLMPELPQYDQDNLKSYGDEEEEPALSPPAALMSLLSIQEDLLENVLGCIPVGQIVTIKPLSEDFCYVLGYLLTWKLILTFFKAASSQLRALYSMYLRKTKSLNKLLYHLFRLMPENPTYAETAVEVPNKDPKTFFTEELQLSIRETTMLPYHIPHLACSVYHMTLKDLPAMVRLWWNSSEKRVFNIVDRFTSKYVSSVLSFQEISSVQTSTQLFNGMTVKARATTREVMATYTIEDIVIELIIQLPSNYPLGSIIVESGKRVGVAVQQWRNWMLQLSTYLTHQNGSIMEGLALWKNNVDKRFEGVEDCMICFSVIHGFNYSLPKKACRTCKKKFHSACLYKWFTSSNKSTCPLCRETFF

Substance: Listerin (from UniProt O94822 1-1766) (enzyme)
- poly-ubiquitination of the nascent chain-tRNA, purified NEMF titrated into reactions with 5 nM 80S-RNCs and 1.2 nM Listerin, relative to no NEMF: 3 to 5 fold
